Where a chain is given by its changes, count along the chain named.
B1: fusion loop targeting pan-flavivirus antibody (4G2) (antibody, V domains shown)
VH: EVQLQQSGPELVKPGTSVKISCKTSGYTFTEYTIHWVKQSHGKSLAWIGGIDPNSGGTNYSPNFKGKATLTVDKSSSTAYMDLRSLSSEDSAVYFCARIYHYDGYFDVWGAGTAVTVSS
VL: DIKMTQSPSSMYASLGERVTITCKASQDINSYLTWFQQKPGKSPKTLIYRANRLIDGVPSRFSGSGSGQDYSLTISSLDYEDMGIYYCLQYDEFPPTFGGGTKLEIKR
B2: mAb 7 (antibody, V domains shown)
VH: EVQLLESGGGLVQPGGSLRLSCAASGFSFSTYSMHWVRQAPGKGLEWVSAISGEGDSAYYADSVKGRFEISRDNSKNTLYLQMNKVRAEDTAVYYCVGGYSNFYYYYTMDAWGQGTMVTVSS
VL: DIVMTQSPASLSLSPGERATLSCRATQSIVTFLAWYQQKPGQAPRLLIYDASTNASGIPARFSGSRSGTDFTLTITRLEPEDFAVYYCQQRYNWPPYSFGQGTKLEIK
notes: also called VH.2 / VL.4
B3: mAb 8 (antibody, V domains shown)
VH: B2 VH with E69T
VL: B2 VL with V30S, N54R
notes: also called VH.1 / VL.2
B4: mAb 6 (antibody, V domains shown)
VH: EVQLVESGGGLVQPGGSLRLSCSASGFSFSTYSMHWVRQAPGKGLEYVSAITGEGDSAFYADSVKGRFTISRDNSKNTLYFEMNSLRPEDTAVYYCVGGYSNFYYYYTMDAWGQGTSVTVSS
VL: B2 VL with D1E, M4L, V30S, Q38H, N54R, I58V, T76S, R77S, L105V
notes: also called VH.3 / VL.1

Columns and labels:
[1] = biological target: T1, Zika virus envelope protein (EP), strain ILM (Brazil Paraiba 2015), on whole virus (Zika virus)
T1 construct: also called Zika strain ILM

[2] = biological target: T1, Zika virus envelope protein (EP), …; test: cell-based or functional assay

Binder | Kd [1] [µg/mL] | PRNT50 (plaque reduction neutralization test on BHK-21 cells) [2] [µg/mL]
B1 | 6.41 | 
B2 | 5.21 | 
B3 | 19.3 | 5.12
B4 | 3.85 | 0.0597

Source: patent publication US10829545 (MIT, dated 2020)
